Target: rat collagen (Type I collagen), coated on 96-well plates (rat) (UniProt P02454)
Assay: binding of fluorescent protein or nanoworm conjugate to coated 96-well plates

Sequence of UniProt P02454 (P02454 152-1207, chain 1 of 2): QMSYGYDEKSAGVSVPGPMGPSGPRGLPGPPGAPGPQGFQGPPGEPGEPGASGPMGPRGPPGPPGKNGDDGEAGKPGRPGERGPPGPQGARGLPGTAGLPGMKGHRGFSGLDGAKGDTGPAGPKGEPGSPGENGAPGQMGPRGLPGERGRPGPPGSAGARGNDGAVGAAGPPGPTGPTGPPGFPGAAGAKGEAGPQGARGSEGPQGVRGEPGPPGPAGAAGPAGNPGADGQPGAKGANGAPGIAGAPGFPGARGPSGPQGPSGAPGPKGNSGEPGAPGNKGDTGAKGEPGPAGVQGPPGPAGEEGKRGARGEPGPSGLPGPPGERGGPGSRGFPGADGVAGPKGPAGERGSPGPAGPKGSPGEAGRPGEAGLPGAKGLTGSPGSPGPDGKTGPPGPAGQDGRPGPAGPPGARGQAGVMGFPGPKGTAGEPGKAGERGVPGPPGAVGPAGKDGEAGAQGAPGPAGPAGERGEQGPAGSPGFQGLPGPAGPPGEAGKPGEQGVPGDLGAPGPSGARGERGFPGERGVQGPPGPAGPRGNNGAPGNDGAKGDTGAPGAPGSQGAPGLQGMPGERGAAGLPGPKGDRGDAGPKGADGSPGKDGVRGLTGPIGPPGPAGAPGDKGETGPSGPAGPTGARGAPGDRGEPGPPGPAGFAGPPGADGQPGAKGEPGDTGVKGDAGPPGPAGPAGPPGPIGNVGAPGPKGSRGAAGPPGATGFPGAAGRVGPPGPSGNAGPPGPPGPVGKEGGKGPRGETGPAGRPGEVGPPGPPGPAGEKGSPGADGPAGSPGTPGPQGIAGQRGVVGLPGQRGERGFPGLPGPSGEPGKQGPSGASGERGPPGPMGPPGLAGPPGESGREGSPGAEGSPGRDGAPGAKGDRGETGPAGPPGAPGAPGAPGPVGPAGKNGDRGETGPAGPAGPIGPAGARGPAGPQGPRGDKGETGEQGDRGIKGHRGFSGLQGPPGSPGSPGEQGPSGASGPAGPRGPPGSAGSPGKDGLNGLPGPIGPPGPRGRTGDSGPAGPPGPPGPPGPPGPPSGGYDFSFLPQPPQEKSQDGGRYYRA
Sequence of UniProt P02454 (P02466 86-1125, chain 2 of 2, further chain): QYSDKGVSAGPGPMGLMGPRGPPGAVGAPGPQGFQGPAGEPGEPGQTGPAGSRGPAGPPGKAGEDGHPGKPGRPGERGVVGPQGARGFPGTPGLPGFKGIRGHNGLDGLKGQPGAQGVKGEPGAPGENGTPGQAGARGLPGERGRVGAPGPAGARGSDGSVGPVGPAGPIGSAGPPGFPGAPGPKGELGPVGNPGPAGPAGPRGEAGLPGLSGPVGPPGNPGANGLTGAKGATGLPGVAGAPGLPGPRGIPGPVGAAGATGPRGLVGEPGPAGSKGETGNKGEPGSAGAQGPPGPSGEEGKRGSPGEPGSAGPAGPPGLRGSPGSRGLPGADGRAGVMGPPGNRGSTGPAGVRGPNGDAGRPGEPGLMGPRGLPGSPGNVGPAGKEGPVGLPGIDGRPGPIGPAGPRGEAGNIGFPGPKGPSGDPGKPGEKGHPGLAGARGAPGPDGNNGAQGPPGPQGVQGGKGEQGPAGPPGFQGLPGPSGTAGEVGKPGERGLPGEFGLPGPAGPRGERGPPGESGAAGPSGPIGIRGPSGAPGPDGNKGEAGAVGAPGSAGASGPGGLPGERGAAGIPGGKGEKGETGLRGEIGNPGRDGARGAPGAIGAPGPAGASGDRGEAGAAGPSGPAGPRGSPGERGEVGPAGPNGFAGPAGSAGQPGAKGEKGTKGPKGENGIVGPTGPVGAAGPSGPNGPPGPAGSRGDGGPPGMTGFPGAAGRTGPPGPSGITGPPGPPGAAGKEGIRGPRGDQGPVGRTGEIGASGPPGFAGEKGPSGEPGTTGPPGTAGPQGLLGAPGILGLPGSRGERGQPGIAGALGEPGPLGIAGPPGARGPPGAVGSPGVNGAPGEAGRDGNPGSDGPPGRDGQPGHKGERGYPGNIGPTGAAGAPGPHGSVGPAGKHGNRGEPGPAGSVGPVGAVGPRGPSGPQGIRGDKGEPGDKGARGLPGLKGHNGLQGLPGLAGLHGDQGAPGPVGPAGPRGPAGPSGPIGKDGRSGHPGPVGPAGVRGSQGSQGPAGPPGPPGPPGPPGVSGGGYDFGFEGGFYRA

Row | fold increase in binding to heated collagen, normalized to collagen at 37 °C [x] | half-maximal binding temperature (temperature to which the collagen was heated) [°C] | fold increase in binding over unheated controls [fold] | Substance
1 | 7.2 | 43.4 | – | 45-kDa gelatin-binding fibronectin proteolytic fragment, labelled with VivoTag-S750 (domain or fragment)
2 | – | 41.7 | 6 | fibronectin fragment-conjugated iron oxide nanoworms

Reference: paper PMC3809612
